According to paper PMC11426443, “Signal-sensing triggers the shutdown of HemKR, regulating heme and iron metabolism in the spirochete Leptospira biflexa” (PLOS ONE, 2024):
Each block holds one compound with its values, some of them ahead of it.

Columns and labels:
[1] = target: phosphorylated HemRFL (full-length HemR, phosphorylated) (Leptospira biflexa); assay: SEC; 600 uM HemRREC or HemRFL incubated with 5 mM acetyl phosphate, 10 mM MgCl2; dimeric phosphorylated form separated from monomeric non-phosphorylated form on Superdex 10/300 75 prep
[2] = target: phosphorylated HemRREC (receiver domain of HemR, phosphorylated) (Leptospira biflexa); assay: as above
HemKΔ80 = target: T1, HemKΔ80 (Leptospira biflexa, UniProt A5JUR4); assay: autophosphorylation, PhosTag-SDS-PAGE; format: biochemical; conditions: 5 mM ATP, 10 mM MgCl2; phosphoryl transfer to HemK H98
T1 construct: gene LEPBI_I1423; soluble cytoplasmic catalytic region lacking first 80 residues (periplasmic and transmembrane); N-terminal His-tag cut by TEV; E. coli Rosetta-gami(DE3)
T1 sequence (A5JUR4 81-295): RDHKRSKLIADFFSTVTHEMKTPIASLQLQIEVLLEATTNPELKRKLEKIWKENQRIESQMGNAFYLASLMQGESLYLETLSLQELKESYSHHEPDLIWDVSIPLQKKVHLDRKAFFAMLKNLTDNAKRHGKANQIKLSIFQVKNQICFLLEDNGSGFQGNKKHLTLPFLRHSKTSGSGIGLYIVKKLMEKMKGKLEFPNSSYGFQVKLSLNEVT

stoichiometry N [1]: 2
Compound: phosphorylated HemRFL (full-length HemR, phosphorylated) (natural protein)

stoichiometry N [2]: 2
Compound: phosphorylated HemRREC (receiver domain of HemR, phosphorylated) (domain or fragment)

Compound: Nc1ncnc2c1ncn2[C@@H]1O[C@H](COP(=O)(O)OP(=O)(O)OP(=O)(O)O)[C@@H](O)[C@H]1O [ATP]
autophosphorylation, PhosTag-SDS-PAGE (HemKΔ80): possesses ATP-dependent autokinase activity (Fig 1A)
